Values of other authors, collected in PMC5179943.

Molecular target: LRP2/Megalin (Homo sapiens) (UniProt P98164)
Test: solid phase binding assay

Chain of UniProt P98164 (P98164 26-4423): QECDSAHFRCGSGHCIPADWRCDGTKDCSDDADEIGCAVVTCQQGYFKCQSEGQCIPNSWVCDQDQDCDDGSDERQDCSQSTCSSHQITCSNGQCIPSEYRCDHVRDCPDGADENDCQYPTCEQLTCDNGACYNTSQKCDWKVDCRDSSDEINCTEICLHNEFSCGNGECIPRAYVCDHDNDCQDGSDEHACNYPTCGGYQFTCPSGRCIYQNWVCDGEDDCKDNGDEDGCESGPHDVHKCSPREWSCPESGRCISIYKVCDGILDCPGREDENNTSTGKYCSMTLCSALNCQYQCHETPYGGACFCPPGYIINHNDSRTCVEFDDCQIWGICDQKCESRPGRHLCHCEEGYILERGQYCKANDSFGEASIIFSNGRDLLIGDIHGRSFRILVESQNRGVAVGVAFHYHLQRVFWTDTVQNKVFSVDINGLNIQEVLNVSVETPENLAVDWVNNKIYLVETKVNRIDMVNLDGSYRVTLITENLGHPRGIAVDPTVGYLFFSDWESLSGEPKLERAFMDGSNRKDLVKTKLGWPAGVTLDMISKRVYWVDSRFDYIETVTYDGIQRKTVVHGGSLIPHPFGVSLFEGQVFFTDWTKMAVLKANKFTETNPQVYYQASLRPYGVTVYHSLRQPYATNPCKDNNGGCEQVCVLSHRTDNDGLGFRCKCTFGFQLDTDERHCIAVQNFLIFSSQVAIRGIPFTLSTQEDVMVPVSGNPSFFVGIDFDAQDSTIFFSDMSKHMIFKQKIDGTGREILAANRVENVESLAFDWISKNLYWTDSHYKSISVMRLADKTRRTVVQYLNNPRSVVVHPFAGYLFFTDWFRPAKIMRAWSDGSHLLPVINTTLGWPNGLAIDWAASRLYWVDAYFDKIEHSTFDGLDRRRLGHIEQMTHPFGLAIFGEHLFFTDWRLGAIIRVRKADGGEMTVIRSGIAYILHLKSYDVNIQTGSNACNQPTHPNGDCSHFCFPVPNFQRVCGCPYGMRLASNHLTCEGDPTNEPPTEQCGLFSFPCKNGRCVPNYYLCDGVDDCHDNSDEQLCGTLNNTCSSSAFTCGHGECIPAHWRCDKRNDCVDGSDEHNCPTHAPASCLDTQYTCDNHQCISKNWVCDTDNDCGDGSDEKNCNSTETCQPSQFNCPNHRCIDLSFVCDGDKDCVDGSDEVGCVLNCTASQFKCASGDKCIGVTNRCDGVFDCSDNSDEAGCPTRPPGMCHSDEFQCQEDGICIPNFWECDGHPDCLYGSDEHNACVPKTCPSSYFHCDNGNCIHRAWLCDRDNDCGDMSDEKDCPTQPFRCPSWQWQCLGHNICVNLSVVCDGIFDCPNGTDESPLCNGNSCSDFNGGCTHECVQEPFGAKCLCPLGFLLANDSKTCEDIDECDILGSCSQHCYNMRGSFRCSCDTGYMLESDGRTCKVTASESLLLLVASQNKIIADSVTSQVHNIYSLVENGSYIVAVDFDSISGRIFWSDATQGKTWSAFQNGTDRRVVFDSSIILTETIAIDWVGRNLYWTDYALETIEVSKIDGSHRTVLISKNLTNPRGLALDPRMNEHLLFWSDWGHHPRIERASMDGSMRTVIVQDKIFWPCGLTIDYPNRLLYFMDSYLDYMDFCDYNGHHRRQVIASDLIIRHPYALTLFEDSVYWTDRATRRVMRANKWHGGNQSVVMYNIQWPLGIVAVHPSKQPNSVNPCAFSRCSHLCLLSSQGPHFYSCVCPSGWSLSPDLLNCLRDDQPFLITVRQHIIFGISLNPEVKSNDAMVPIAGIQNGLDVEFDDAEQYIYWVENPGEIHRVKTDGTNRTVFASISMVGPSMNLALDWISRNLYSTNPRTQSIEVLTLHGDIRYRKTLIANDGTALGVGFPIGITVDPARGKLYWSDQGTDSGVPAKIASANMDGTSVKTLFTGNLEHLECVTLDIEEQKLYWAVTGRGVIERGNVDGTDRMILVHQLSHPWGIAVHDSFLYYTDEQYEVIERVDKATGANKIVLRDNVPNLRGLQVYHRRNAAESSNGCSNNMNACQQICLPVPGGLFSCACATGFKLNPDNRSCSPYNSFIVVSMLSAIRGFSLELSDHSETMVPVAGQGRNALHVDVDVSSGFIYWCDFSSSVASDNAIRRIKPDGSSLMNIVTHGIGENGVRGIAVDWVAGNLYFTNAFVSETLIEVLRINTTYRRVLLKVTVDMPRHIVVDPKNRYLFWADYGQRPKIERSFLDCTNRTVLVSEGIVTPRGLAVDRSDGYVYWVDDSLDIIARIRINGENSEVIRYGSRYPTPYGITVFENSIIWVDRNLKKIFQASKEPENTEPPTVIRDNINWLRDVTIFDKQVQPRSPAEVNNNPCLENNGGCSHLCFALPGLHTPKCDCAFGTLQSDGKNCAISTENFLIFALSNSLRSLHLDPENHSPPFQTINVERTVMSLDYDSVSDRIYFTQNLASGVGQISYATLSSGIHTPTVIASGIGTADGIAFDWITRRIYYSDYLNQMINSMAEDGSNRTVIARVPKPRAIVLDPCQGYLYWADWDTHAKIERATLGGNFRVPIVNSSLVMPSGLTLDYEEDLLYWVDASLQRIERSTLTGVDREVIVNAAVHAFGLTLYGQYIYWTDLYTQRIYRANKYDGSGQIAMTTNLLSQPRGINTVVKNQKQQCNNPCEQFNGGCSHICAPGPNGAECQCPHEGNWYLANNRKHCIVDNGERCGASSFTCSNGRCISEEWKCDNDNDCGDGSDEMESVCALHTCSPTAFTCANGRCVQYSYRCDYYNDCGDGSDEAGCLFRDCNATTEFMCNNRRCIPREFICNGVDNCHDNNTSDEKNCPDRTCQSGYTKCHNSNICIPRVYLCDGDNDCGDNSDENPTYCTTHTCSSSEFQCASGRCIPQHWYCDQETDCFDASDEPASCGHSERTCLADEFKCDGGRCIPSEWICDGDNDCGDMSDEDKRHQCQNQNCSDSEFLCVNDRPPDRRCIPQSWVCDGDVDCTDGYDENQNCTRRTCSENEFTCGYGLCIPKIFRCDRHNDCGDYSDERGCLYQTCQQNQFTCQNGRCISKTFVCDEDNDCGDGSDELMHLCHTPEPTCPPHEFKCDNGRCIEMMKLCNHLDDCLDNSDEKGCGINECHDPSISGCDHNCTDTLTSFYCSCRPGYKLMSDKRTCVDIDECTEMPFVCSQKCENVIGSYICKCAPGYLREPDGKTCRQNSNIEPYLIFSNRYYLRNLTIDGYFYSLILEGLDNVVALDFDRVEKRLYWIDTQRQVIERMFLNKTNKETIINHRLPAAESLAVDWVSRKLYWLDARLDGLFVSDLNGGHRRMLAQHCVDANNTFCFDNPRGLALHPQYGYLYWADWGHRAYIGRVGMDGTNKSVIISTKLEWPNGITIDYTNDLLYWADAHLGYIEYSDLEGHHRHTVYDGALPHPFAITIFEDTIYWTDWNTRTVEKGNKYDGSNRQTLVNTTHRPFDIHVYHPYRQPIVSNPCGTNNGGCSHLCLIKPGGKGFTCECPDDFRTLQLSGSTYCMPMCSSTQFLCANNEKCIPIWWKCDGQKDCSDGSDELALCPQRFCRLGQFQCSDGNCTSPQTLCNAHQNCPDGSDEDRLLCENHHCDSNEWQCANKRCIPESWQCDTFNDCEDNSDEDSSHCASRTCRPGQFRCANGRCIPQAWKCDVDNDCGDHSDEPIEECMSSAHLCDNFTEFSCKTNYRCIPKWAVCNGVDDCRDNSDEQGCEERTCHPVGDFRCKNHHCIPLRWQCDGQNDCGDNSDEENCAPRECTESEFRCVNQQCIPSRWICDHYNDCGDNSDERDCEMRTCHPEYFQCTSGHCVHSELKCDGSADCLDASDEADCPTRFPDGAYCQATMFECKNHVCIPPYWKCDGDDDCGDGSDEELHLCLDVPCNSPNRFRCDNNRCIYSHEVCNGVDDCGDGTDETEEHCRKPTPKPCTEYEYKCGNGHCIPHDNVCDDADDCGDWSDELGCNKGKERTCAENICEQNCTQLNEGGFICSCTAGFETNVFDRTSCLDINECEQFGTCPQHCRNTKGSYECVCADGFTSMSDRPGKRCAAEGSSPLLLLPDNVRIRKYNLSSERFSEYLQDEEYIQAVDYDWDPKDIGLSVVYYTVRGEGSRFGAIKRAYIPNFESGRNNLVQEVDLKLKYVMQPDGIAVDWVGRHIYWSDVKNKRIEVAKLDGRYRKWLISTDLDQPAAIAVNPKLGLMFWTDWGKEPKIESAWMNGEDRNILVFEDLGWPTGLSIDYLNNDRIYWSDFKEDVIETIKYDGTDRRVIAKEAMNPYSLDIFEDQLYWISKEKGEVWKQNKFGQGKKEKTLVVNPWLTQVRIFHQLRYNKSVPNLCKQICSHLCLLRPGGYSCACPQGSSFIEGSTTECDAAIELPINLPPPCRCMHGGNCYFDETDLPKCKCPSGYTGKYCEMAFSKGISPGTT

- Kd: 14.2 nM
Substance: Clusterin (from UniProt P10909)
